From article PMC10776578, “Epstein-Barr virus-driven B cell lymphoma mediated by a direct LMP1-TRAF6 complex” (Nature Communications, 2024)
Changes are numbered by the printed parent chain. Numbers in names are those of the source. Entries after “also recorded” stand apart in the source; their conditions may differ.

B1: R392A (protein, UniProt Q9Y4K3 1-522, looked up, variant R392A)
TNF receptor-associated …: MSLLNCENSCGSSQSESDCCVAMASSCSAVTKDDSVGGTASTGNLSSSFMEEIQGYDVEFDPPLESKYECPICLMALREAVQTPCGHRFCKACIIKSIRDAGHKCPVDNEILLENQLFPDNFAKREILSLMVKCPNEGCLHKMELRHLEDHQAHCEFALMDCPQCQRPFQKFHINIHILKDCPRRQVSCDNCAASMAFEDKEIHDQNCPLANVICEYCNTILIREQMPNHYDLDCPTAPIPCTFSTFGCHEKMQRNHLARHLQENTQSHMRMLAQAVHSLSVIPDSGYISEVRNFQETIHQLEGRLVRQDHQIRELTAKMETQSMYVSELKRTIRTLEDKVAEIEAQQCNGIYIWKIGNFGMHLKCQEEEKPVVIHSPGFYTGKPGYKLCMALHLQLPTAQRCANYISLFVHTMQGEYDSHLPWPFQGTIRLTILDQSEAPVRQNHEEIMDAKPELLAFQRPTIPRNPKGFGYVTFMHLEALRQRTFIKDDTLLVRCEVSTRFDMGSLRREGFQPRSTDAGV
B2: F471A (protein, UniProt Q9Y4K3 1-522, looked up, variant F471A)
TNF receptor-associated …: B1 TNF receptor-associated … with A392R, F471A
B3: Y473A (protein, UniProt Q9Y4K3 1-522, looked up, variant Y473A)
TNF receptor-associated …: B1 TNF receptor-associated … with A392R, Y473A

Tests used:
GST-CD40_216-277 = experiment: AlphaScreen PPI, TRAF6 mutants binding to CD40; design: species or system human; TRAF6 binding to CD40 (AlphaScreen), mean: unit not given here; settings: for effect of TRAF6 mutation on binding to CD40 (in words): AlphaScreen PPI; for TRAF6 binding to CD40 (AlphaScreen), mean / TRAF6 binding to CD40 (AlphaScreen): Figure 2b; for TRAF6 binding to CD40 (AlphaScreen), mean: mean of n = 3
Method: Fig. 2 LMP1 binds to the receptor-interacting surface of TRAF6. a Mutations within the receptor-interacting surface of TRAF6 affect binding to LMP1. The TRAF6 mutants R392A, K469A, F471A, and Y473A were tested LMP1 in AlphaScreen PPI experiments with GST-LMP1_181-386. Data are mean values ± SD of three independent experiments. Statistics: one-way ANOVA. b TRAF6 R392A differentiates between CD40 and LMP1/RANK. AlphaScreen PPI experiments with GST-CD40_216-277. Data are mean values ± SD of three independent experiments. […] AlphaScreen PPI experiments with GST-RANK314-355. Data are mean values ± SD of four independent experiments. Statistics: one-way ANOVA. d TRAF6 mutants that fail to interact with LMP1 in PPI assays are also unable to bind cellular LMP1. HEK293 cells were co-transfected with HA-LMP1 and the indicated Flag-TRAF6 mutants. Flag-TRAF6 was immunoprecipitated (IP) via its Flag-tag and coprecipitated HA-LMP1 was detected on immunoblots by an α-HA antibody. Uncropped blots in Supplementary Fig. 6b. For statistical analysis LMP1 signals were digitalized and quantified (graph). Data are mean values ± SD of three independent experiments. […] TRAF6 recruitment is dependent on amino acids 371 − 386 of LMP1 (small panel). Confocal microscopy images show representative cells of three independent experiments. Quantitative data are mean values ± SD of ten randomly selected cells per transfection of one representative experiment (graph). Scale bars: 10 µm. Statistics: one-way ANOVA. p-values: *p ≤ 0.05, **p ≤ 0.01, ***p ≤ 0.001, ****p ≤ 0.0001. Source data and exact p-values in the Source Data file.
AlphaScreen experiments were performed in 96- or 384-well plates (Perkin Elmer, OptiPlate). In both assay formats, His-TRAF and GST-LMP1, GST-CD40, or GST-RANK proteins were incubated together in 40 µL of PBS (protein concentrations were calculated to the final reaction volume of 60 µL) supplemented with 0.5% BSA (Sigma, #A7030) and 0.1% Tween-20 (AppliChem, #A4974), for 1 h at room temperature (RT). If not indicated otherwise, standard protein concentrations were 300 nM for His-TRAF proteins and 100 nM for GST-LMP1 proteins. Ni-NTA-acceptor (Perkin Elmer, #6760619 C) and GST-acceptor (Perkin Elmer, # 6765300) beads were added each to a final concentration of 1–4 µg per mL in a final reaction volume of 60 µL and incubated for 1 h at RT in the dark. AlphaScreen PPI signals were measured in a CLARIOstar reader (BMG Labtech GmbH).

HA-LMP1 [1] = experiment: Confocal immunofluorescence colocalization of Flag-TRAF6 with HA-LMP1 in HeLa cells; type: cell-based, Epstein-Barr virus; settings: for colocalization with HA-LMP1 (in words): confocal microscopy; for colocalization of TRAF6 with LMP1, mean: mean of ten cells
Method: HeLa cells were seeded onto cover glasses (Thermo Scientific, Menzel) in 24-well plates one day before transfection. Cells were transfected at 50–60% confluency with 50 ng of pCMV-HA-LMP1 plasmids and 100 ng of pRK5-Flag-TRAF6 plasmids, adjusted to a total of 500 ng DNA per sample with pRK5 empty vector, using Lipofectamine 2000 (Thermo Fisher Scientific) according to the manufacturer’s instructions. At 24 h posttransfection, cells were washed once with PBS and fixed with 4% paraformaldehyde (Sigma-Aldrich) for 20 min at RT, followed by permeabilization with 0.3% (v/v) Triton X-100 and blocking with 5% (v/v) FBS in PBS for 1 h at RT. For immunostaining, the cells were incubated overnight with the primary antibodies α-HA (1:1000, clone 16B12, BioLegend) and α-DYKDDDDK (1:1000, clone L5, BioLegend) at 4 °C. The secondary antibodies goat α-mouse Alexa 488 (1:500, cross-adsorbed, Invitrogen, #A-11029) and goat α-rat Alexa 555 (1:500, cross-adsorbed, Invitrogen, #A-21434) were added for 1.5 h at RT. Microscope slides were sealed with cover glasses using Mowiol mounting medium (Sigma-Aldrich). Nuclei were stained with Hoechst 33258 (Sigma-Aldrich). All samples were imaged using a Leica TCS SP5 confocal microscope with 405 nm, 488 nm, 543 nm or 633 nm laser lines, scanning each channel separately under image capture conditions that eliminated channel overlap. For each single experiment, 10 transfected cells positive for both constructs were randomly captured as single-cell images for quantification. The resulting images were then analyzed using the Leica TCS SP5 colocalization analyses application (LAS AF Version 2.7.3.9723). Analysis was performed with default parameters.

HA-LMP1 [2] = experiment: Coimmunoprecipitation of HA-LMP1 with Flag-TRAF6 mutants in HEK293 cells; type: cell-based, Epstein-Barr virus; settings: for coprecipitated HA-LMP1 signal (densitometry), mean: HEK293, mean of n = 3; for interaction of TRAF6 mutants with LMP1 in HEK293 cells (in words): coimmunoprecipitation
Method: Immunoblotting was essentially performed as described. Proteins were detected on nitrocellulose membranes (Bio-Rad, #1620115) using the following primary antibodies: α−6*His-tag (clone 4A4 or 2F12, source: antibody facility of the Helmholtz Center Munich, hybridoma supernatants were used at a 1:10 dilution)[75], α-TRAF6 (H-274, Santa Cruz Biotech., #sc-7221, used at 1:1000), α-HA-tag (12CA5, Sigma-Aldrich, #11583816001, used at 0.4 µg per mL), α-IκBα (C-21, Santa Cruz Biotech., #sc-371, used at 1:500) and α-Tubulin (B-5-1-2, Santa Cruz Biotech., #sc-23948, used at 1:500). Horseradish peroxidase-coupled antibodies were used as secondary antibodies (Cell Signalling Technology, #7074 or #7076, respectively, both used at 1:5000). ECL signals were captured on X-ray films (Agfa Healthcare) and quantified by densitometry using the ImageJ software. Uncropped scans of immunoblots indicating molecular weights are provided in Supplementary Fig. 6.
HEK293 cells were transfected with 1 µg of pRK5-Flag TRAF6 plasmids, 1 µg of pCMV-HA-LMP1 and 6 µg of pRK5 per 10 cm cell culture dish using PolyFect Transfection Reagent (Qiagen, #301107) in RPMI without supplements. Cells were incubated with the plasmid transfection mix for 4 h before the medium was changed to RPMI full medium. After 24 h, the cells were lysed in NP40-lysis buffer (50 mM HEPES pH 7.5, 150 mM NaCl, 5 mM EDTA, 0.5 mM sodium orthovanadate, 0.5 mM PMSF, 0.5 mM sodium molybdate, and cOmplete protease inhibitor cocktail). Lysates were cleared by centrifugation at 15000 x g for 10 min at 4 °C, and the protein concentration was adjusted to 1 mg per mL. For immunoprecipitation 4 mL of lysate was incubated with the α-Flag antibody 6F7 (Sigma-Aldrich, #F3165; covalently coupled to protein-G-Sepharose) for 1 h at 4 °C. The beads were pelleted at 15000 x g for 30 seconds at 4 °C, washed twice with NP40-lysis buffer, and analyzed by immunoblotting.

[3] = relative to mean wt 100, replicate 1

| Molecule | effect of TRAF6 mutation on binding to CD40 (in words) (GST-CD40_216-277) | TRAF6 binding to CD40 (AlphaScreen), mean (GST-CD40_216-277) | TRAF6 binding to CD40 (AlphaScreen) (GST-CD40_216-277; [3]) | TRAF6 binding to CD40 (AlphaScreen) (GST-CD40_216-277; replicate 2) | TRAF6 binding to CD40 (AlphaScreen) (GST-CD40_216-277; replicate 3) | colocalization with HA-LMP1 (in words) (HA-LMP1 [1]) | colocalization of TRAF6 with LMP1, mean (HA-LMP1 [1]) | coprecipitated HA-LMP1 signal (densitometry), mean (HA-LMP1 [2]) | interaction of TRAF6 mutants with LMP1 in HEK293 cells (in words) (HA-LMP1 [2]) |
| --- | --- | --- | --- | --- | --- | --- | --- | --- | --- |
| B1 | no impact on TRAF6 binding to CD40 | 85.62 | 56.3 | 84.0 | 116.7 | fail to interact with LMP1 wild-type clusters; also recorded: strongly decreased colocalization with HA-LMP1 | 16.72 | 2761976 | abolished the TRAF6 interaction with LMP1 |
| B2 | complete loss of TRAF6 binding | 0.6069 | 0.8 | 0.43 | 0.6 | fail to interact with LMP1 wild-type clusters; also recorded: strongly decreased colocalization with HA-LMP1 | 13.45 | 5862061 | abolished the TRAF6 interaction with LMP1 |
| B3 | complete loss of TRAF6 binding | 0.5871 | 0.7 | 0.5 | 0.5 | fail to interact with LMP1 wild-type clusters; also recorded: strongly decreased colocalization with HA-LMP1 | 24.45 | 5322536 | abolished the TRAF6 interaction with LMP1 |
